± gives the standard deviation of the averaged measurements.
Tested on: ATP
Assay: switch fluorescence ratio, 500 uM ATP over buffer (Cy3 cluster intensity, sum of 5 cycles each) (fold (ratio)); higher = stronger signal-on switching upon ATP binding; sequences stand for … in TCGTCGGCAGCGTCAGATGTGTATAAGAGACAGTTTTTTTTTTTTTTTTTTTTTTTTT…TC
Settings: aptamer strand: ATP DNA aptamer (quencher-CACCTGGGGGAGTATTGCGGAGGAAGG + anchor), 100 nM annealed; ATP concentration: 500 uM
Procedure, shortened: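 Between each of five buffer/ATP cycles, the flow-cell was stripped with NaOH and re-annealed. Each cycle imaged Cy3-labelled switching-strand clusters, annealed to 100 nM quencher-labelled ATP aptamer on a modified Illumina MiSeq flow-cell, first in selection buffer and then after 15 min with 500 uM ATP at 22 °C. The fluorescence ratio is summed target-cycle over summed buffer-cycle Cy3 intensity per cluster, averaged per switch-domain sequence, with clusters outside 100-1000 RFU excluded.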
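Further: ATP exposure 15 min at 22 °C before imaging.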

Row | Sequence | switch fluorescence ratio
1 | TATGGTGGGT | 0.995 ± 0.027
2 | TAGGGGGTTG | 0.987 ± 0.027
3 | GATAGGTATA | 1.01 ± 0.032
4 | AGTGTGTTAT | 0.974 ± 0.011
5 | CCGGCTTTAG | 0.99 ± 0.015
6 | CGAGACTAGT | 1.01 ± 0.063
7 | GTAAGGGGTC | 1 ± 0.028
8 | GAAGATGGTG | 0.963 ± 0.037
9 | TTTGGGCATT | 1.04 ± 0.035
10 | TCAAGCCATC | 1.063 ± 0.0037
11 | TCATTCGGTG | 1.05 ± 0.041
12 | CAATGGGTAC | 0.969 ± 0.024
13 | TATCTAGAGG | 1.01 ± 0.022
14 | CAATGCGACA | 1.39 ± 0.078
15 | GGGAATACAT | 1.01 ± 0.028
16 | GACTGTGATC | 1.037 ± 0.0042
17 | AATCAGAAAG | 1.15 ± 0.24
18 | GGTTTAGGCT | 1.08 ± 0.12
19 | AATCTCGTAA | 1.02 ± 0.023
20 | AAACGTATGT | 0.9984 ± 0.0079
21 | AATTACCTCG | 1.04 ± 0.043
22 | GGCAGGGGGT | 1.04 ± 0.088
23 | GCGGGGTTAT | 1.03 ± 0.011
24 | CGAGTAGGGA | 0.995 ± 0.021
25 | TACGGGTTAG | 1.031 ± 0.0034

Row | Sequence | switch fluorescence ratio
26 | AAGTTATAAC | 0.956 ± 0.067
27 | CTCTGTCACG | 1.11 ± 0.074
28 | AGGAGAGGGA | 0.995 ± 0.038
29 | CCGCGACAGG | 3.04 ± 0.22
30 | TGTGTTGGGA | 0.98 ± 0.016
31 | TTGGCGACAT | 1.02 ± 0.021
32 | GTAAGATTGA | 0.986 ± 0.015
33 | GGGGGGTTAA | 1.02 ± 0.028
34 | GAAATTGAGT | 1 ± 0.027
35 | ACAGTACTTG | 1.292 ± 0.0098
36 | TTATTATTT | 0.994 ± 0.11
37 | GATTGTTTGT | 1.03 ± 0.067
38 | GGGCAAGGTG | 1.21 ± 0.12
39 | GGTAAGGGGA | 0.991 ± 0.033
40 | CACGTGGGGG | 1.007 ± 0.006
41 | CGGGGGCTG | 1 ± 0.039
42 | GTGCCAAGGG | 1.16 ± 0.21
43 | TATCGTACAG | 1.06 ± 0.011
44 | AGGTCAGGCA | 1.002 ± 0.0075
45 | AGTGGGTATT | 1.01 ± 0.016
46 | GCGCATGAAG | 0.983 ± 0.013
47 | TTTGGGGGCT | 1.01 ± 0.04
48 | CGCTATGGGG | 1.02 ± 0.059
49 | ACTGTGGACA | 1.02 ± 0.016
50 | TATTTTTTGT | 1.01 ± 0.021

Row | Sequence | switch fluorescence ratio
51 | TTTTTATATC | 0.99 ± 0.028
52 | GTAGAGCGGG | 0.9889 ± 0.0042
53 | CTTTGTCGGT | 1.03 ± 0.054
54 | AATCATGGCG | 0.991 ± 0.07
55 | TTATTGAAA | 1.023 ± 0.0033
56 | GCATTGGGGT | 0.994 ± 0.012
57 | ATAGAATTAA | 0.989 ± 0.013
58 | CTTAACAGAA | 0.9912 ± 0.0059
59 | TAGGATGGGG | 1 ± 0.032
60 | TCTAATGTGG | 0.983 ± 0.043
61 | ATCCGTGAGA | 1.05 ± 0.02
62 | TGAGTTCTTG | 0.982 ± 0.046
63 | GGCAGAGGCT | 1.03 ± 0.031
64 | TTTGCAATGT | 1.29 ± 0.1
65 | GTTCAAGGGG | 0.983 ± 0.039
66 | TTTCATGAAT | 0.987 ± 0.0027
67 | GAGGCGTGTG | 0.985 ± 0.029
68 | GTTGGCATGG | 1.025 ± 0.0044
69 | TATGAGGAGT | 0.982 ± 0.015
70 | TTGGGAAAGA | 1.21 ± 0.34
71 | TTTGGGATAG | 1.01 ± 0.049
72 | GATAGCTGGG | 1 ± 0.014
73 | ACTACGGATT | 1.06 ± 0.026
74 | TTGTGATGTC | 1.031 ± 0.0048
75 | TTCCGGGGAT | 1.04 ± 0.044

Row | Sequence | switch fluorescence ratio
76 | TTGGTGTGTC | 1.04 ± 0.07
77 | TTCGGGACCC | 1.08 ± 0.1
78 | GTCATTCCGC | 1.65 ± 0.065
79 | TTAGGGGGGT | 1.05 ± 0.15
80 | TAAACTATGG | 1.02 ± 0.062
81 | ATGTAGAAGG | 1 ± 0.029
82 | AAGGCAAGTG | 0.989 ± 0.054
83 | GGGGGTAAGG | 0.987 ± 0.034
84 | TATGGGGTAT | 0.9863 ± 0.0055
85 | GGGGGGCAGC | 1 ± 0.017
86 | ATCGGTACGT | 1.03 ± 0.021
87 | GGGGCAATAT | 3.69 ± 1.9
88 | CATATACATT | 1.056 ± 0.0039
89 | GCAAATGTAT | 1.004 ± 0.0037
90 | CGTGAGGGGT | 0.994 ± 0.026
91 | AGTTGGTAAT | 0.963 ± 0.06
92 | TGGAAGGGTA | 0.9903 ± 0.0012
93 | AGTATATCTG | 0.974 ± 0.02
94 | GACCTTGACG | 1.02 ± 0.022
95 | AATGCCCGGC | 1.02 ± 0.11
96 | TTAACAGTGT | 0.964 ± 0.035
97 | GGGGGCACAG | 0.992 ± 0.012
98 | ACCTGTGAGT | 0.9909 ± 0.0019
99 | TTATGAGGGT | 0.982 ± 0.015
100 | GGGTTGATCG | 0.9875 ± 0.0046

Row | Sequence | switch fluorescence ratio
101 | GGTATAATTG | 1.021 ± 0.0062
102 | CGTTAGGGGA | 0.999 ± 0.011
103 | AAGTGGGGTG | 0.982 ± 0.019
104 | TAATATTCGA | 0.995 ± 0.018
105 | AGGAGTAATC | 1.04 ± 0.072
106 | TTGGTTATGT | 0.969 ± 0.017
107 | ACAAATTGTT | 1.09 ± 0.069
108 | AATATTTCGC | 1.02 ± 0.018
109 | TTCGGCTGCA | 1.08 ± 0.064
110 | TTGTGAGGTT | 1.06 ± 0.088
111 | GGAGTTTTTT | 0.968 ± 0.029
112 | GAGGTGACTG | 1.01 ± 0.015
113 | TAAAGGTTGA | 1.01 ± 0.012
114 | CGAGGGGGA | 1.0066 ± 0.00091
115 | TAGGTTTGGC | 1.03 ± 0.024
116 | AATGACTAAT | 1.01 ± 0.017
117 | GGGCGGGCGC | 1.06 ± 0.027
118 | CCTTATTTCT | 1 ± 0.031
119 | ACATGCTGTA | 0.995 ± 0.024
120 | CAATGTTTGC | 1.002 ± 0.0083
121 | CAGTGGAGTG | 0.98561 ± 8.7e-05
122 | GCGGAAGGCG | 1 ± 0.018
123 | TGGAGGGGGT | 1.09 ± 0.28
124 | CCAATGGTGG | 1.01 ± 0.043
125 | TATAGATTGG | 0.985 ± 0.019

Row | Sequence | switch fluorescence ratio
126 | GGCGCATTAT | 1.66 ± 0.061
127 | TGCATAACGT | 1.02 ± 0.024
128 | GTGGCTTTAT | 1.01 ± 0.013
129 | TTATGGTTTT | 1 ± 0.024
130 | CGTTATATCC | 1.06 ± 0.021
131 | CGTACGTCAT | 1.08 ± 0.04
132 | TCTGATGTGA | 1.08 ± 0.044
133 | GAATCAGTGG | 0.993 ± 0.05
134 | GTGCCCGGAT | 0.9846 ± 0.0065
135 | GTTTGCGGGC | 0.947 ± 0.0066
136 | TCGGGGCTTT | 0.982 ± 0.022
137 | TTTAGCTTGT | 0.972 ± 0.011
138 | CCGTCAACTA | 1.96 ± 0.22
139 | AATTGGGGGT | 0.992 ± 0.038
140 | AGATGAGGGT | 1 ± 0.02
141 | CTAATTTACG | 1.06 ± 0.028
142 | TAGTGGAAAC | 0.9885 ± 0.0015
143 | ATCCGTGATG | 1.11 ± 0.051
144 | TCGAGGGAGT | 1.02 ± 0.028
145 | TCTTCGGTTG | 0.9805 ± 0.0096
146 | CAAATACGGT | 1.25 ± 0.25
147 | TACTATGTTG | 1.02 ± 0.065
148 | AGCCTGCCCG | 1.05 ± 0.037
149 | CGGTGAAGTT | 0.966 ± 0.01
150 | TTCCAGGGGG | 1.08 ± 0.089

Row | Sequence | switch fluorescence ratio
151 | ATCGGAATGT | 1.012 ± 0.0063
152 | CGTTTTGGGT | 1.01 ± 0.033
153 | CTAGATTGGG | 1.015 ± 0.0043
154 | TATCGGGGCT | 0.981 ± 0.064
155 | GGACGGAATG | 0.955 ± 0.02
156 | AAAGGGTGGC | 1.01 ± 0.028
157 | CATGGAGGGG | 0.9617 ± 0.0061
158 | CGTTACTATA | 1.08 ± 0.011
159 | AGAGGTTAGG | 0.9874 ± 0.0033
160 | TCGGCCCAGG | 3.6 ± 1.4
161 | CCGAAGGGGA | 1.65 ± 0.88
162 | AAACACCGGG | 1.11 ± 0.031
163 | CTTTGGGTTT | 0.981 ± 0.058
164 | GGGTGAAACA | 0.987 ± 0.069
165 | TGCAATCGGT | 1.22 ± 0.065
166 | TTCTTTGTGA | 1 ± 0.054
167 | AAAAAATTTA | 0.996 ± 0.043
168 | GGGCGGAGCG | 0.999 ± 0.036
169 | CCCATGCGTT | 1.03 ± 0.063
170 | AACCTTTTTT | 1.03 ± 0.0037
171 | AGTAAGGGCT | 0.99 ± 0.015
172 | TTGAAAAATT | 1.03 ± 0.016
173 | AAGGATTCGC | 1 ± 0.072
174 | AAATCGAGGA | 1.018 ± 0.0096
175 | TAGGATGGGC | 1.04 ± 0.04

Row | Sequence | switch fluorescence ratio
176 | CCAGGGCGGC | 0.854 ± 0.019
177 | CCGTAAAACT | 2.46 ± 1.2
178 | GCCATAGGTC | 1.012 ± 0.0043
179 | TTCACGGACC | 1.455 ± 0.013
180 | TTCTACTTTT | 1.01 ± 0.053
181 | ATATTGGCTA | 1 ± 0.0039
182 | GGGATTCCGT | 1.05 ± 0.042
183 | TTTCTCAGTA | 1.03 ± 0.041
184 | AGTGAGAATT | 1.013 ± 0.01
185 | GGGGGGTGTA | 1 ± 0.055
186 | CCAATCGGGG | 1.03 ± 0.087
187 | GACCTTAATT | 1.01 ± 0.025
188 | CGATGGTCTG | 0.9872 ± 0.0018
189 | AAGGCTTTCT | 1.02 ± 0.032
190 | GGGTTTCGAT | 0.984 ± 0.024
191 | TCAGGGCGCA | 1.03 ± 0.079
192 | TAGTGAAGGG | 0.9974 ± 0.0061
193 | AAGGATAAAC | 1.01 ± 0.039
194 | GGTAGTAGTG | 1.0054 ± 0.00082
195 | GTTGTATGTG | 0.965 ± 0.047
196 | TTTCCTTTGT | 1.01 ± 0.049
197 | ATGAGCCGAG | 0.9983 ± 0.009
198 | AGCTATGTTA | 1.03 ± 0.0045
199 | GTAATAGGTT | 0.956 ± 0.057
200 | TTTTTGTGAG | 1.01 ± 0.039

Source: the supplement of paper PMC10126150
